Experimental data as given in patent publication US20260193348A1.

Biological target: GPRC5D (G-protein coupled receptor family C group 5 member D), human, on multiple myeloma cell lines (human) (UniProt Q9NZD1)
Experiment: cell-based or functional assay

Sequence of GPRC5D (G-protein coupled receptor family C group 5 member D), human, on multiple myeloma cell lines (human) (Q9NZD1 whole entry): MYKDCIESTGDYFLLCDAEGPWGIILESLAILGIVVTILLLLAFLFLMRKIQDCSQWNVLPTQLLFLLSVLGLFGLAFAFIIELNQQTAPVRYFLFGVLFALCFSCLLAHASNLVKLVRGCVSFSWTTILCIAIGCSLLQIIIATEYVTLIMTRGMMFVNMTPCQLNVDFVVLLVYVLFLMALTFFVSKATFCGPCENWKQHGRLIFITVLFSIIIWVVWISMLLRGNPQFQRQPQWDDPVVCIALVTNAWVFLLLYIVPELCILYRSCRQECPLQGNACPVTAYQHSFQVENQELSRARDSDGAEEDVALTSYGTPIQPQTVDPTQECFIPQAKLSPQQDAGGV

| Binder | IC50 (nM), T-Cell Dependent Cytotoxicity, MM.1S [nM] | Top (%), T-Cell Dependent Cytotoxicity, MM.1S [%] |
| --- | --- | --- |
| Bis-108-H3L4 (bispecific antibody, not shown: a dimerising Fc or GST) heavy: EVQLVQSGAEVKKPGASVKVSCKASGYTFTSYVIHWVRQAPGQGLEWMGYFNPYNDGTKYNEEFKGRVTLTSDKSTSTAYMELRSLRSDDTAVYYCARGGVRRYFDVWGQGTTVTVSS heavy (part 1 of 2): EVQLVQSGAEVKKPGASVKVSCKASGYTFTSYVIHWVRQAPGQGLEWMGYFNPYNDGTKYNEEFKGRVTLTSDKSTSTAYMELRSLRSDDTAVYYCARGGVRRYFDVWGQGTTVTVSS heavy (part 2 of 2): GGGGSGGGGSEVQLVESGGGLVQPGGSLRLSCAASGFTFNTYAMNWVRQAPGKGLEWVARIRSKYNNYATYYAASVKGRFTISRDDSKNSLYLQMNSLKTEDTAVYYCARHGNFGNSYVSWFAYWGQGTLVTVSSGGGGSGGGGSGGGGSGGGGSQTVVTQEPSLTVSPGGTVTLTCRSSTGAVTTSNYANWVQQKPGQAPRGLIGGTNKRAPGTPARFSGSLLGGKAALTLSGVQPEDEAEYYCALWYSNLWVFGGGTKLTVLGGGGSGGGGS light: DIQMTQSPSSLSASVGDRVTITCRASQDIGSNLNWLQQKPGKAIKRLIYATFGLDSGVPSRFSGSRSGTDFTLTISSLQPEDFATYYCQQYASFPYTFGGGTKVEIK | 0.0496 | 72.4 |
| Bis-108-H1L4 (bispecific antibody, not shown: a dimerising Fc or GST) heavy: EVQLVQSGAEVKKPGASVKVSCKASGYTFTSYVIHWVRQAPGQGLEWMGYFNPYNDGTKYNEEFKGRVTMTTDTSTSTAYMELRSLRSDDTAVYYCARGGVRRYFDVWGQGTTVTVSS heavy (part 1 of 2): EVQLVQSGAEVKKPGASVKVSCKASGYTFTSYVIHWVRQAPGQGLEWMGYFNPYNDGTKYNEEFKGRVTMTTDTSTSTAYMELRSLRSDDTAVYYCARGGVRRYFDVWGQGTTVTVSS heavy (part 2 of 2): GGGGSGGGGSEVQLVESGGGLVQPGGSLRLSCAASGFTFNTYAMNWVRQAPGKGLEWVARIRSKYNNYATYYAASVKGRFTISRDDSKNSLYLQMNSLKTEDTAVYYCARHGNFGNSYVSWFAYWGQGTLVTVSSGGGGSGGGGSGGGGSGGGGSQTVVTQEPSLTVSPGGTVTLTCRSSTGAVTTSNYANWVQQKPGQAPRGLIGGTNKRAPGTPARFSGSLLGGKAALTLSGVQPEDEAEYYCALWYSNLWVFGGGTKLTVLGGGGSGGGGS light: DIQMTQSPSSLSASVGDRVTITCRASQDIGSNLNWLQQKPGKAIKRLIYATFGLDSGVPSRFSGSRSGTDFTLTISSLQPEDFATYYCQQYASFPYTFGGGTKVEIK | 0.0597 | 75.5 |
| Bis-108-H2L4 (bispecific antibody, not shown: a dimerising Fc or GST) heavy: EVQLVQSGAEVKKPGASVKVSCKASGYTFTSYVIHWVRQAPGQGLEWIGYFNPYNDGTKYNEEFKGRATMTTDTSTSTAYMELRSLRSDDTAVYYCARGGVRRYFDVWGQGTTVTVSS heavy (part 1 of 2): EVQLVQSGAEVKKPGASVKVSCKASGYTFTSYVIHWVRQAPGQGLEWIGYFNPYNDGTKYNEEFKGRATMTTDTSTSTAYMELRSLRSDDTAVYYCARGGVRRYFDVWGQGTTVTVSS heavy (part 2 of 2): GGGGSGGGGSEVQLVESGGGLVQPGGSLRLSCAASGFTFNTYAMNWVRQAPGKGLEWVARIRSKYNNYATYYAASVKGRFTISRDDSKNSLYLQMNSLKTEDTAVYYCARHGNFGNSYVSWFAYWGQGTLVTVSSGGGGSGGGGSGGGGSGGGGSQTVVTQEPSLTVSPGGTVTLTCRSSTGAVTTSNYANWVQQKPGQAPRGLIGGTNKRAPGTPARFSGSLLGGKAALTLSGVQPEDEAEYYCALWYSNLWVFGGGTKLTVLGGGGSGGGGS light: DIQMTQSPSSLSASVGDRVTITCRASQDIGSNLNWLQQKPGKAIKRLIYATFGLDSGVPSRFSGSRSGTDFTLTISSLQPEDFATYYCQQYASFPYTFGGGTKVEIK | 0.0934 | 74 |
| ATG-Bis-108 (bispecific antibody, not shown: a dimerising Fc or GST) heavy: EVQLQQSGPELVKPGASVKMSCKASGYTFTSYVIHWVKQKTGQGLEWIGYFNPYNDGTKYNEEFKGKATLTSDKSSNTAYMELNSLTSDDSAVYFCARGGVRRYFDVWGAGTTVTVSS heavy (part 1 of 2): EVQLQQSGPELVKPGASVKMSCKASGYTFTSYVIHWVKQKTGQGLEWIGYFNPYNDGTKYNEEFKGKATLTSDKSSNTAYMELNSLTSDDSAVYFCARGGVRRYFDVWGAGTTVTVSS heavy (part 2 of 2): GGGGSGGGGSEVQLVESGGGLVQPGGSLRLSCAASGFTFNTYAMNWVRQAPGKGLEWVARIRSKYNNYATYYAASVKGRFTISRDDSKNSLYLQMNSLKTEDTAVYYCARHGNFGNSYVSWFAYWGQGTLVTVSSGGGGSGGGGSGGGGSGGGGSQTVVTQEPSLTVSPGGTVTLTCRSSTGAVTTSNYANWVQQKPGQAPRGLIGGTNKRAPGTPARFSGSLLGGKAALTLSGVQPEDEAEYYCALWYSNLWVFGGGTKLTVLGGGGSGGGGS light: DIQMTQSPSSLSASLGERVSLTCRASQDIGSNLNWLQQEPDGTIKRLIYATFGLDSGVPKRFSGSRSGSDYSLTISSLESEDFVDYYCQQYASFPYTFGGGTKLEIK | 0.0871 | 77.2 |
| Bis-108-H5L3 (bispecific antibody, not shown: a dimerising Fc or GST) heavy: EVQLVQSGAEVKKPGASVKVSCKASGYTFTSYVIHWVKQAPGQGLEWIGYFNPYNDGTKYNEEFKGKATLTTDKSTSTAYMELRSLRSDDTAVYYCARGGVRRYFDVWGQGTTVTVSS heavy (part 1 of 2): EVQLVQSGAEVKKPGASVKVSCKASGYTFTSYVIHWVKQAPGQGLEWIGYFNPYNDGTKYNEEFKGKATLTTDKSTSTAYMELRSLRSDDTAVYYCARGGVRRYFDVWGQGTTVTVSS heavy (part 2 of 2): GGGGSGGGGSEVQLVESGGGLVQPGGSLRLSCAASGFTFNTYAMNWVRQAPGKGLEWVARIRSKYNNYATYYAASVKGRFTISRDDSKNSLYLQMNSLKTEDTAVYYCARHGNFGNSYVSWFAYWGQGTLVTVSSGGGGSGGGGSGGGGSGGGGSQTVVTQEPSLTVSPGGTVTLTCRSSTGAVTTSNYANWVQQKPGQAPRGLIGGTNKRAPGTPARFSGSLLGGKAALTLSGVQPEDEAEYYCALWYSNLWVFGGGTKLTVLGGGGSGGGGS light: DIQMTQSPSSLSASVGDRVTITCRASQDIGSNLNWLQQKPGKAIKRLIYATFGLDSGVPSRFSGSGSGTDYTLTISSLQPEDFATYYCQQYASFPYTFGGGTKVEIK | 0.0897 | 74.8 |
